The text below walks through data of publication PMC7041718 (The Journal of Experimental Medicine, 2019).

This assay has as its target 16055 gp120 (HIV-1 clade C clinical isolate 16055). As to the kind of experiment: ELISA. (In an ELISA, binding on a coated surface is turned into a signal by an enzyme label.)

B1: GM7_TH2 mAb (antibody, V domains shown)
VH: QVQLVQSGTEVKQPGASVKVSCKASGYTFTGYGMNWVRQAHGQRLEWMGWINTETGHPTYAQGFKERFTFSMDTSISTAYLQINSLKPEDTAIYYCARFSGLHSVAVFEYWGQGVLVTVSS
VL: SSGLTQEPALSVALGHTVRMTCQGDSLKTYYATWYQQKPGQVPVLVIYDNNYRPSGIPGRFSVSWSGDTNSLTITAAQVEDEADYYCNSWDSSGTHLLFGGGTRLTVL
Regarding B1, the binding result was “binds”.
